Test results: paper PMC4830570, “CD36 Differently Regulates Macrophage Responses to Smooth and Rough Lipopolysaccharide” (PLoS ONE, 2016)

Columns and labels:
[1] = target: T1, CD36 on the surface of mouse peritoneal exudate macrophages (mouse (endogenous in peritoneal exudate …, UniProt Q08857 1-472)); assay: cellular ELISA; rCD14 with 1 μg/ml S-LPS on adherent PEMs, incubation on ice (0°C); bound rCD14 detected with HRP-anti-Fc; settings: one partner purified
T1 construct: CD36, mouse, endogenous on the surface of peritoneal exudate macrophages; also called CD36 on PEMs; endogenous CD36; source: endogenous, on adherent thioglycollate-elicited peritoneal exudate macrophages of C57BL/6 mice

[2] = target: T1, CD36 on the surface of mouse peritoneal …; assay: cellular ELISA; 5 μg/ml rCD14 with 1 μg/ml S-LPS on adherent PEMs, 50 min at 37°C in FCS-RPMI; bound rCD14 detected with HRP-anti-Fc; settings: one partner purified

T1 sequence (Q08857 whole entry): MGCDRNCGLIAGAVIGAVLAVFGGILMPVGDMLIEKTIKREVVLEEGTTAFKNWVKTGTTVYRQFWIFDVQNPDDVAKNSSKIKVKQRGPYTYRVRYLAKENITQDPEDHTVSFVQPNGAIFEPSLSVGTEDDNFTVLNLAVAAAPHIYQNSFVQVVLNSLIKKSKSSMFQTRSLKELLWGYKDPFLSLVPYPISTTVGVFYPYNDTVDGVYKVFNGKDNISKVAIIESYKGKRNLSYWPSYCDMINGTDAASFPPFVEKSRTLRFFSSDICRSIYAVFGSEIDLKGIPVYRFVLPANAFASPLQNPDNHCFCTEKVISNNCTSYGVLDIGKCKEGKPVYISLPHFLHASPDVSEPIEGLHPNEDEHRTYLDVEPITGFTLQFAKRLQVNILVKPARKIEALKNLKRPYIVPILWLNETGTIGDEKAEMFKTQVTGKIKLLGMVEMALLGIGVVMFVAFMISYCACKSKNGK

fold higher binding on ice than at 37°C [1]: ~2 fold
fold increase of binding with S-LPS over binding without LPS [2]: > 25 fold
B1: recombinant mouse CD14 tagged with the Fc fragment of human IgG1 (Fc fusion, UniProt P10810 16-336, looked up)
chain: SPAPPEPCELDEESCSCNFSDPKPDWSSAFNCLGAADVELYGGGRSLEYLLKRVDTEADLGQFTDIIKSLSLKRLTVRAARIPSRILFGALRVLGISGLQELTLENLEVTGTAPPPLLEATGPDLNILNLRNVSWATRDAWLAELQQWLKPGLKVLSIAQAHSLNFSCEQVRVFPALSTLDLSDNPELGERGLISALCPLKFPTLQVLALRNAGMETPSGVCSALAAARVQLQGLDLSHNSLRDAAGAPSCDWPSQLNSLNLSFTGLKQVPKGLPAKLSVLDLSYNRLDRNPSPDELPQVGNLSLKGNPFLDSESHSEKFN
notes: CD14, mouse, recombinant soluble receptor from R&D Systems; also called rCD14; source: bought: R&D Systems
